Measurements taken from article PMC3755337.
Each block holds one substance with its values, some of them ahead of it.

Columns and labels:
Experiment in all cases: SEC; purified mutant TNFα alone on a size exclusion column; single peak; column and buffer not given
[1] = molecular target: mTNFα mutant 20, [L1V, Q6R, N7T, S8P, H20P, V22A, E24G, E27Q, S30N, Q31R, M41V, D42E, K44R, V58I, D71S, Y72H, ins 71_T_72, V79I, V96I, P101Q, K102R, D103E, L110A, V135I, L137R, K139D, V153I]mTNF-α(1–156) (mouse)
[2] = molecular target: mTNFα mutant 3, [S30N, Q31R]mTNF-α(1–156) (mouse)
[3] = molecular target: mTNFα mutant 18, [L1V, Q6R, N7T, S8P, H20P, V22A, E24G, E27Q, S30N, Q31R, M41V, V58I, V79I, V96I, V135I, V153I]mTNF-α(1–156) (mouse)
[4] = molecular target: mTNFα mutant 13, [M41V, V58I, V79I, V96I, V135I, V153I]mTNF-α(1–156) (mouse)
[5] = molecular target: mTNFα mutant 4, [D71S, Y72H, ins 71_T_72]mTNF-α(1–156) (mouse)
[6] = molecular target: mTNFα mutant 8, [L137R, K139D]mTNF-α(1–156) (mouse)
[7] = molecular target: mTNFα mutant 6, D71S, Y72H, ins 71_T_72, P101Q, K102R,D103E,L110A]mTNF-α(1–156) (mouse)
[8] = molecular target: mTNFα mutant 9, [H20P, V22A, E24G, E27Q]mTNF-α(1–156) (mouse)
[9] = molecular target: mTNFα mutant 14, [H20P, V22A, E24G, E27Q, M41V, V58I, V79I, V96I, V135I, V153I]mTNF-α(1–156) (mouse)
[10] = molecular target: mTNFα mutant 1, [Q6R, N7T, S8P]mTNF-α(1–156) (mouse)
[11] = molecular target: mTNFα mutant 7, [E88T]mTNF-α(1–156) (mouse)
[12] = molecular target: mTNFα mutant 16, [L1V, Q6R, N7T, S8P, H20P, V22A, E24G, E27Q, S30N, Q31R, M41V, V58I, V79I, V96I, V135I, L137R, K139D, V153I]mTNF-α(1–156) (mouse)
[13] = molecular target: mTNFα mutant 2, [Q6R, N7T, S8P, A52S, D53E]mTNF-α(1–156) (mouse)
[14] = molecular target: mTNFα mutant 11, [Q130R]mTNF-α(1–156) (mouse)
[15] = molecular target: mTNFα mutant 15, [H20P, V22A, E24G, E27Q, S30N, Q31R, M41V, V58I, V79I, V96I, V135I, L137R, K139D, V153I]mTNF-α(1–156) (mouse)
[16] = molecular target: mTNFα mutant 19, [L1V, Q6R, N7T, S8P, H20P, V22A, E24G, E27Q, S30N, Q31R, M41V, D42E, K44R, V58I, V79I, V96I, P101Q, K102R, D103E, L110A, V135I, L137R, K139D, V153I]mTNF-α(1–156) (mouse)
[17] = molecular target: mTNFα mutant 17, [L1V, Q6R, N7T, S8P, H20P, V22A, E24G, E27Q, S30N, Q31R, M41V, D42E, K44R, A52S, D53E, V58I, V79I, F82I, I84V, E88T, V96I, Q130R, V135I, L137R, K139D, V153I]mTNF-α(1–156) (mouse)
[18] = molecular target: mTNFα mutant 12, [D42E, K44R, F82I, I84V, E88T, Q130R]mTNF-α(1–156) (mouse)
[19] = molecular target: mTNFα mutant 10, [H20P, V22A, E24G, E27Q, S30N, Q31R, L137R, K139D]mTNF-α(1–156) (mouse)
[20] = molecular target: mTNFα mutant 5, [P101Q, K102R, D103E, L110A]mTNF-α(1–156) (mouse)

Substance: mTNFα mutant 3, [S30N, Q31R]mTNF-α(1–156) (natural protein)
stoichiometry N [2]: 3

Substance: mTNFα mutant 13, [M41V, V58I, V79I, V96I, V135I, V153I]mTNF-α(1–156) (natural protein)
stoichiometry N [4]: 3

Substance: mTNFα mutant 4, [D71S, Y72H, ins 71_T_72]mTNF-α(1–156) (natural protein)
stoichiometry N [5]: 3

Substance: mTNFα mutant 9, [H20P, V22A, E24G, E27Q]mTNF-α(1–156) (natural protein)
stoichiometry N [8]: 3

Substance: mTNFα mutant 7, [E88T]mTNF-α(1–156) (natural protein)
stoichiometry N [11]: 3

Substance: mTNFα mutant 2, [Q6R, N7T, S8P, A52S, D53E]mTNF-α(1–156) (natural protein)
stoichiometry N [13]: 3

Substance: mTNFα mutant 17, [L1V, Q6R, N7T, S8P, H20P, V22A, E24G, E27Q, S30N, Q31R, M41V, D42E, K44R, A52S, D53E, V58I, V79I, F82I, I84V, E88T, V96I, Q130R, V135I, L137R, K139D, V153I]mTNF-α(1–156) (natural protein)
stoichiometry N [17]: 3

Substance: mTNFα mutant 12, [D42E, K44R, F82I, I84V, E88T, Q130R]mTNF-α(1–156) (natural protein)
stoichiometry N [18]: 3

Substance: mTNFα mutant 10, [H20P, V22A, E24G, E27Q, S30N, Q31R, L137R, K139D]mTNF-α(1–156) (natural protein)
stoichiometry N [19]: 3

Further lines, results first:

stoichiometry N [1]: 3
Substance: mTNFα mutant 20, [L1V, Q6R, N7T, S8P, H20P, V22A, E24G, E27Q, S30N, Q31R, M41V, D42E, K44R, V58I, D71S, Y72H, ins 71_T_72, V79I, V96I, P101Q, K102R, D103E, L110A, V135I, L137R, K139D, V153I]mTNF-α(1–156) (natural protein)

stoichiometry N [3]: 3
Substance: mTNFα mutant 18, [L1V, Q6R, N7T, S8P, H20P, V22A, E24G, E27Q, S30N, Q31R, M41V, V58I, V79I, V96I, V135I, V153I]mTNF-α(1–156) (natural protein)

stoichiometry N [6]: 3
Substance: mTNFα mutant 8, [L137R, K139D]mTNF-α(1–156) (natural protein)

stoichiometry N [7]: 3
Substance: mTNFα mutant 6, D71S, Y72H, ins 71_T_72, P101Q, K102R,D103E,L110A]mTNF-α(1–156) (natural protein)

stoichiometry N [9]: 3
Substance: mTNFα mutant 14, [H20P, V22A, E24G, E27Q, M41V, V58I, V79I, V96I, V135I, V153I]mTNF-α(1–156) (natural protein)

stoichiometry N [10]: 3
Substance: mTNFα mutant 1, [Q6R, N7T, S8P]mTNF-α(1–156) (natural protein)

stoichiometry N [12]: 3
Substance: mTNFα mutant 16, [L1V, Q6R, N7T, S8P, H20P, V22A, E24G, E27Q, S30N, Q31R, M41V, V58I, V79I, V96I, V135I, L137R, K139D, V153I]mTNF-α(1–156) (natural protein)

stoichiometry N [14]: 3
Substance: mTNFα mutant 11, [Q130R]mTNF-α(1–156) (natural protein)

stoichiometry N [15]: 3
Substance: mTNFα mutant 15, [H20P, V22A, E24G, E27Q, S30N, Q31R, M41V, V58I, V79I, V96I, V135I, L137R, K139D, V153I]mTNF-α(1–156) (natural protein)

stoichiometry N [16]: 3
Substance: mTNFα mutant 19, [L1V, Q6R, N7T, S8P, H20P, V22A, E24G, E27Q, S30N, Q31R, M41V, D42E, K44R, V58I, V79I, V96I, P101Q, K102R, D103E, L110A, V135I, L137R, K139D, V153I]mTNF-α(1–156) (natural protein)

stoichiometry N [20]: 3
Substance: mTNFα mutant 5, [P101Q, K102R, D103E, L110A]mTNF-α(1–156) (natural protein)
